In patent US20250115669A1, “FGFR1/KLB Targeting Agonistic Antigen-Binding Proteins and Conjugates Thereof with GLP-1R Agonistic Peptides” (SANOFI, priority 2020, published 2025):

Experiments:
[1] = target: T1, FGFR1c and co-receptor beta-Klotho (KLB) (Homo sapiens, UniProt P11362+Q86Z14); assay: Luciferase reporter gene assay (iLite FGF21 Assay Ready Cells), FGF21-like signaling; type: cell-based
T1 construct: host or cells: iLite FGF21 Assay Ready Cells (HEK293)

[2] = In vivo PK in cynomolgus monkeys, single intravenous dose; design: species or system Cynomolgus monkey (Macaca fascicularis); conditions: Macaca fascicularis, plasma
Experimental: Naive cynomolgus monkeys received a single intravenous dose of mAb according to the following table:
In all investigations, the animals were evaluated twice daily for post-dose mortality/moribundity and cage side clinical observations were carried out after each study blood collection time. Studies were Non-GLP, nevertheless, these studies have been conducted in a GLP compliant facility using practices detailed in Standard Operating Procedures consistent with the principles of GLP (Test facility: Sanofi and Charles River Laboratories). Plasma concentrations and pharmacokinetic parameters of the tested antibodies were investigated after single intravenous administration.

[3] = Plasma concentrations and PK during three subcutaneous administrations in obese cynomolgus monkeys; type: in vivo, Cynomolgus monkey (Macaca fascicularis); conditions: subcutaneous doses of 1 mg/kg, male obese Cynomolgus monkeys
Experimental: Specifically, plasma concentrations and pharmacokinetic parameters were analyzed during a treatment of three subsequent subcutaneous administrations of 1 and 3 mg/kg in solution to male obese Cynomolgus monkeys. The exposure to both tested antibodies after subcutaneous doses of 1 mg/kg […] were similar. Moreover, plasma concentrations of both compounds were detected up to the end of sampling (i.e. 336 and 504 hours after the 2nd and the 3rd dose, respectively).

[4] = Hydrophobic interaction chromatography (HIC); type: physicochemical
Experimental: The analysis was run at a flow rate of 1 mL/min with detection at 280 nm. 5 μg of undiluted protein sample were applied onto the column. Gradient elution was from 15% B to 85% B in 7 min followed by 1 min to 100% B, then 1 min to 15% B and then 3 minutes equilibration at 15% B. Buffer A was composed of 1.5 mol/L ammonium sulfate, 25 mmol/L sodium phosphate pH 7.0. Buffer B was composed of 25 mmol/L sodium phosphate pH 7.0. Data evaluation was performed either using LabSolutions software v5.85 (Shimadzu) or Chromeleon 7 software (Thermo Fisher Scientific).

[5] = Nano differential scanning fluorimetry (nanoDSF), Tonset and Tm; type: physicochemical
Experimental: Onset temperatures (Tonset) and melting points (Tm) of protein denaturation were determined using nano differential scanning fluorimetry (nanoDSF). Samples were diluted in formulation buffer to a final concentration of 0.5 mg/mL and loaded into nanoDSF capillaries in duplicates (Nanotemper Technologies). All measurements were done using a Prometheus NT.plex nanoDSF device (Nanotemper Technologies). Heating rate was 1° C. per minute from 20° C. to 95° C. Data were recorded using PR.ThermControl Software v2.3.1 (Nanotemper Technologies) and analyzed using PR.Stability Analysis Software v1.0.3 (Nanotemper Technologies).

[6] = Dynamic light scattering (DLS) and diffusion interaction parameter (kD); type: physicochemical
Experimental: Dynamic light scattering (DLS) was performed using a DynaPro Plate Reader (Wyatt Technology). The samples were measured in 384 well assay plates (Corning) at 25° C. Data were evaluated by cumulant fitting using Dynamics Software version 7.7.0.125 (Wyatt Technology).
Colloidal stability of the samples was assessed by measuring the diffusion interaction parameter (kD) at 20° C. using a DynaPro Plate Reader (Wyatt Technology). Before the measurements the samples were buffer exchanged against 5 L of 10 mmol/L Histidine pH 6.0 by dialysis for 20 h with one buffer change using 1 mL Float-A-Lyzer G2 devices with 3.5-5 kDa cut-off (Spectrum Labs). A dilution series from 1 to 4.5 mg/mL, in 0.5 mg/mL increments, was prepared in 10 mmol/L Histidine pH 6.0 and measured in 384 well assay plates (Corning).

T1 sequence (Q86Z14 53-1044 limits assumed): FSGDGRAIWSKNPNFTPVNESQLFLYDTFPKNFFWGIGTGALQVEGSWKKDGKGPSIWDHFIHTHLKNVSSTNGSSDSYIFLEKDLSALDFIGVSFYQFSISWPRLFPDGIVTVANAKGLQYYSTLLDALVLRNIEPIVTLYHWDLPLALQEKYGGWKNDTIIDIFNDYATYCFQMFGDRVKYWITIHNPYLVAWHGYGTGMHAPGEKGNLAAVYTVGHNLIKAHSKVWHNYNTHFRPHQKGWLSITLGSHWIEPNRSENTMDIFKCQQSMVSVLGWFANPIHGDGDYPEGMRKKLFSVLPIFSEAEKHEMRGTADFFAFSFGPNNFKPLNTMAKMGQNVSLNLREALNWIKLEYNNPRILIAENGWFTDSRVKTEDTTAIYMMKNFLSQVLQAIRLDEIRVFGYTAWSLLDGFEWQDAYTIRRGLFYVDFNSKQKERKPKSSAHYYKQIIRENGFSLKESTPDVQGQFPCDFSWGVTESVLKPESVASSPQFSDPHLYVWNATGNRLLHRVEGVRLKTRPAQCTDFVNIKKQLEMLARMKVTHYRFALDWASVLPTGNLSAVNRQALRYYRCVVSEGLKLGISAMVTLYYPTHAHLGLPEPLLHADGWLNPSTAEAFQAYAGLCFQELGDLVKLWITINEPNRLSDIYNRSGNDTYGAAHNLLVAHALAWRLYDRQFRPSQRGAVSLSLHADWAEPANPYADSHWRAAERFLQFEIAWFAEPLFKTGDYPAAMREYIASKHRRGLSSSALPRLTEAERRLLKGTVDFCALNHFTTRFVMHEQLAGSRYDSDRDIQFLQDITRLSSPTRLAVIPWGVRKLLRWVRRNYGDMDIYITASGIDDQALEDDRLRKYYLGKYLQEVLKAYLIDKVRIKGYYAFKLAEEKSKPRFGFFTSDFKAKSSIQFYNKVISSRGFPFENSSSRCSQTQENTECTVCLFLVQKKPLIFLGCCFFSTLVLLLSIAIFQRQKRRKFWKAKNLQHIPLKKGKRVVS
T1 sequence (P11362 22-820 isoform P11362-2 limits assumed): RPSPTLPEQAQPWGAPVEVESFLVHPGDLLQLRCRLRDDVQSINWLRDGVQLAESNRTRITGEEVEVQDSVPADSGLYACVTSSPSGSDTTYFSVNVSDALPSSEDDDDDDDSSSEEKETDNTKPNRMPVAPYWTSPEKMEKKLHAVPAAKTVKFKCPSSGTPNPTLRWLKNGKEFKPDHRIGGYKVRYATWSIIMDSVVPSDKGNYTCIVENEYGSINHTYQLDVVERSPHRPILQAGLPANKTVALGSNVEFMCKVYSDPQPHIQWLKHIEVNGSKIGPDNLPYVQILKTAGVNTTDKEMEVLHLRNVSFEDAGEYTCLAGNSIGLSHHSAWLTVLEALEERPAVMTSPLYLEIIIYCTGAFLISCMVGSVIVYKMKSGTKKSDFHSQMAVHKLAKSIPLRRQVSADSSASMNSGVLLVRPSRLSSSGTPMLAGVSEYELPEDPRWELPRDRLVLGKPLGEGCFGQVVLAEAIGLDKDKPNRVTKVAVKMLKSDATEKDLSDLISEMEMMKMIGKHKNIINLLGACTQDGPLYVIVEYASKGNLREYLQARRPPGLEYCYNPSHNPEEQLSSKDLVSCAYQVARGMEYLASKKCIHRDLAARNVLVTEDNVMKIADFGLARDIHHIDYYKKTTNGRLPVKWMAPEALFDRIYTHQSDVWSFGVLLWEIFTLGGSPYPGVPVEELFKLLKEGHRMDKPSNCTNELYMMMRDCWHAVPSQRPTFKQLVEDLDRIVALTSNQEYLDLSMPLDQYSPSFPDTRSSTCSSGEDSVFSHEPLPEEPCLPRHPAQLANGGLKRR

Q: What does the source list for “16H7: anti FGFR1c/KLB monoclonal antibody of WO 2011/071783, IgG2 backbone; HC SEQ ID NO: 1, LC SEQ ID NO: 2 [Ab 16H7]”?
A: FGF21-like activity in Luciferase gene reporter assay (in words) ([1]; monovalent Fab versus bivalent antibody): shows FGF21-like activity; t½ ([2]; 0.1 mg/kg single IV): 145 h; t½ ([2]; 0.3 mg/kg single IV): 151 h; t½ ([2]; 1.0 mg/kg single IV): 269 h; exposure [3]: similar

Q: Which “cellular activity in the Luciferase gene reporter assay compared to 16H7” value [1] does the source give for “Ab0335: IgG4 PE; 16H7 VL (N25S, D49S, D50A, D91E, N93E); 16H7 VH (M34V, I83T, D109E); HC SEQ ID NO: 39, LC SEQ ID NO: 46” here?
A: comparable cellular activity

Q: And the “Hydrophobic variance HIC Number of peaks” value [4]?
A: 1

Q: And the “HIC Number of peaks” value ([4]; pH 5, 40° C., d 21)?
A: 1

Q: What about the “HIC Number of peaks” value ([4]; pH 5, d 0) of the same substance?
A: 1

Q: And the “HIC Number of peaks” value ([4]; pH 6, 40° C., d 21)?
A: 1

Q: What about the “HIC Number of peaks” value ([4]; pH 6, d 0) of the same substance?
A: 1

Q: What about the “HIC Number of peaks” value ([4]; pH 8, 40° C., d 21) of the same substance?
A: 1

Q: What about the “HIC Number of peaks” value ([4]; pH 8, d 0) of the same substance?
A: 1

Q: And the “Thermal stability DSF Tm” value [5]?
A: 63 °C

Q: What about the “Thermal stability DSF Tonset” value [5] of the same substance?
A: 52 °C

Q: What about the “DSF Tm” value ([5]; pH 5, 40° C., d 21) of the same substance?
A: 62 °C

Q: What about the “DSF Tonset” value ([5]; pH 5, 40° C., d 21) of the same substance?
A: 45 °C

Q: What about the “DSF Tm” value ([5]; pH 5, d 0) of the same substance?
A: 61 °C

Q: What about the “DSF Tonset” value ([5]; pH 5, d 0) of the same substance?
A: 51 °C

Q: And the “DSF Tm” value ([5]; pH 6, 40° C., d 21)?
A: 62 °C

Q: And the “DSF Tonset” value ([5]; pH 6, 40° C., d 21)?
A: 50 °C

Q: And the “DSF Tm” value ([5]; pH 6, d 0)?
A: 63 °C

Q: What about the “DSF Tonset” value ([5]; pH 6, d 0) of the same substance?
A: 52 °C

Q: What about the “DSF Tm” value ([5]; pH 8, 40° C., d 21) of the same substance?
A: 68 °C

Q: And the “DSF Tonset” value ([5]; pH 8, 40° C., d 21)?
A: 57 °C

Q: What about the “DSF Tm” value ([5]; pH 8, d 0) of the same substance?
A: 68 °C

Q: And the “DSF Tonset” value ([5]; pH 8, d 0)?
A: 57 °C

Q: What about the “Homogeneity DLS Hydrodynamic radius” value [6] of the same substance?
A: 5.2 nm

Q: What about the “DLS Hydrodynamic radius” value ([6]; pH 5, 40° C., d 21) of the same substance?
A: 5.2 nm

Q: What about the “DLS Hydrodynamic radius” value ([6]; pH 5, d 0) of the same substance?
A: 5.3 nm

Q: And the “DLS Hydrodynamic radius” value ([6]; pH 6, 40° C., d 21)?
A: 5.1 nm

Q: And the “DLS Hydrodynamic radius” value ([6]; pH 6, d 0)?
A: 5.2 nm

Q: And the “DLS Hydrodynamic radius” value ([6]; pH 8, 40° C., d 21)?
A: 6.1 nm

Q: What about the “DLS Hydrodynamic radius” value ([6]; pH 8, d 0) of the same substance?
A: 5.3 nm

Q: And the t½ ([2]; 3.0 mg/kg single IV)?
A: 306 h

Q: And the exposure [3]?
A: similar
